The series addresses T1, Sco1678 (GntR-His) (Streptomyces coelicolor M145) (UniProt Q9AD89).
T1 sequence: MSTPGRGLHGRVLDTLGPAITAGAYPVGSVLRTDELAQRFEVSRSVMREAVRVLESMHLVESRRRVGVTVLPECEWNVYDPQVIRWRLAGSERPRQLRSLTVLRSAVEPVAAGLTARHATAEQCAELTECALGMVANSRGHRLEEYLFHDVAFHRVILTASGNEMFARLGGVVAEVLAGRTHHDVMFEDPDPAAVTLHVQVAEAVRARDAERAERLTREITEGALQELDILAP
The series is described as follows: EMSA. Particulars: 20 mM Tris/HCl pH 7.5, 50 mM KCl, 10 mM MgCl2, 5% (v/v) glycerol, 0.5 mM EDTA, 25 min at 25 C; 0.2 pmol Cy5 probe, 0.93-4.18 pmol protein; 8% native PAGE, 1x ….

Data on two sequences can be found in publication PMC5425828.

As to “AGCCAGTGGCGATAAGGTTGCTGCATCGCACTCTCGCTGTCTGCTGTCTTCGTCGACACCTGATGTCGACGCAACTGAAACTCATTAGTACGACAACTTCAAGAGTCTGTGACGTATAAGTCTGACTTTTTGTTCCCGTGACATGCCCCGTACGCTGAGTGCATGAGCACACCGGGCCGGGGGCTGCACGGCCGCGTACTGGACACCCTCGGCCCCGCGATCACAGCTTATCGCCACTGGCT (double strand) [gntR-gntK intergeneric region]”, the binding entry is given as “binds”. Next, “AGCCAGTGGCGATAAGCGTCGTACTCCTGTTCCTGCCGGCCGGTGCGTGGTGCGGCTATATGACCAGGGACAACAGCAGGACCAGGGCACCGGCGACCACCGAGATGATCGTCTCCATGACGGACCAGGTCTTGATGGTCTGCCCCACGTTCAGCCCGAAGTACTCCTTCACCAGCCAGCTTATCGCCACTGGCT (double strand) [gntZ promoter region]”: “no binding”.
